Target: T1, hsa-1: WT - Full Length HSA (human, UniProt P02768 25-609)
T1 construct: Yeast-expressed; also called HSA-wt; wt-HSA; not shown: Factor Xa cleavage site
Experiment: method and origin of the value not stated

B1: recombinant mouse FcRn (R&D Systems, cat#6775-FC-050) (receptor)
chain 1: SETRPPLMYHLTAVSNPSTGLPSFWATGWLGPQQYLTYNSLRQEADPCGAWMWENQVSWYWEKETTDLKSKEQLFLEALKTLEKILNGTYTLQGLLGCELASDNSSVPTAVFALNGEEFMKFNPRIGNWTGEWPETEIVANLWMKQPDAARKESEFLLNSCPERLLGHLERGRRNLEWKEPPSMRLKARPGNSGSSVLTCAAFSFYPPELKFRFLRNGLASGSGNCSTGPNGDGSFHAWSLLEVKRGDEHHYQCQVEHEGLAQPLTVDLDSSARSS
chain 2: IQKTPQIQVYSRHPPENGKPNILNCYVTQFHPPHIEIQMLKNGKKIPKVEMSDMSFSKDWSFYILAHTEFTPTETDTYACRVKHASMAEPKTVYWDRDM
notes: Bought reagent
Kd: ~80 µM

From patent US20140315817A1 (ALBUMEDIX, published 2014)
